Experimental data from publication PMC9287321 (Scientific Reports, 2022).

Target: T1, AFP_(158–166) peptide complexed with HLA-A*02:01 (Homo sapiens, HLA-A*02:01)
T1 construct: HLA-A*02:01 heavy chain, soluble recombinant; β2-microglobulin, recombinant; alpha-fetoprotein (AFP) peptide, residues 158–166; also called AFP/HLA-A*02; AFP/HLA-A*02 complex; copies: + +
Test: SPR; Biacore T200, CM5 chip; AFP/HLA-A*02 amine coupled (100–200 RU); kinetic titration, five injections of increasing TCRm, 100 μL/min, 25 °C; 1:1 binding model; mean of three experiments
Conditions: both partners purified

- Kd: 7 nM
B1: anti-AFP TCRm antibody, Fab fragment (Fab, V domains shown)
VH: EVQLVQSGAEVKKPGESLTISCKASGYSFPNYWITWVRQMSGGGLEWMGRIDPGDSYTTYNPSFQGHVTISIDKSTNTAYLHWNSLKASDTAMYYCARYYVSLVDIWGQGTLVTVSS
VL: QSVLTQPASVSGSPGQSITISCTGTSSDVGGYNYVSWYQQHPGKAPKLMIYDVNNRPSEVSNRFSGSKSGNTASLTISGLQAEDEADYYCSSYTTGSRAVFGGGTKLTVL
notes: Fab cut by papain from human IgG1; also called TCR mimic antibody; TCRm Fab fragment
